We go through eight molecules from patent US20110105394A1 (Novo Nordisk, published 2011).

*1 amine or outer side, *2 acyl side, *3 side chain or, on linkers, in order; H or OH if unused. Bridges are numbered along the chain shown (N, C = ends). Where no end group is shown, it is not given here. Side-chain parts run from the residue outwards. The star is where a group is joined. X2 = (S)‑4‑Carboxy‑4‑(19-carboxynonadecanoylamino)butyryl, O=C(O)CCCCCCCCCCCCCCCCCCC(=O)N[C@@H](CCC(=O)*)C(=O)O; C20 diacid = O=C(O)CCCCCCCCCCCCCCCCCCC(=O)*; γGlu = O=C(O)[C@H](CCC(=O)[*:2])N[*:1]; AEEA = NCCOCCOCC(=O)O

This assay has as its target T1, Amylin 3(a) receptor (human calcitonin receptor (CTa) with RAMP-3) (human, UniProt P30988 25-474; O60896 24-148, limits assumed).
T1 sequence (looked up) 1: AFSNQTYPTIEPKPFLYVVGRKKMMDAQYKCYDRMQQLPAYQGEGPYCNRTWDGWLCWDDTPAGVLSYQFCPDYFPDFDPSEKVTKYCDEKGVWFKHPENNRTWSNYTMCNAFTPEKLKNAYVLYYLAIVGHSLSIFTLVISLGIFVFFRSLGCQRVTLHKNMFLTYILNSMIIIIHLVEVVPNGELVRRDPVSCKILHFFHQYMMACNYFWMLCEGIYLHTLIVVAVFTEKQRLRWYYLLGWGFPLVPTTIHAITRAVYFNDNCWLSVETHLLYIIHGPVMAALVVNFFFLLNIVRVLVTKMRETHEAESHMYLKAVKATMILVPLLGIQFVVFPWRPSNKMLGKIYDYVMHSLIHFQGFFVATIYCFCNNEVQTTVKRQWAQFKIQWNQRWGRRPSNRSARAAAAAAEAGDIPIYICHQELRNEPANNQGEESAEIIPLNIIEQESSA
T1 sequence (looked up) 2: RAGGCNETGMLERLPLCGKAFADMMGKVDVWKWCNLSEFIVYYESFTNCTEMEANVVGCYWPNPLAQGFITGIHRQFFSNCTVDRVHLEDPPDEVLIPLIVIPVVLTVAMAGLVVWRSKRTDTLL
Briefly: cell-based or functional assay.

As for KCK([Glu-Arg-Glu-Glu-C20 diacid])TATCATQRLANFLHHSSDNFGPILPPTNVGSNTY-NH2 (disulfide 2-7) [N-epsilon3-(19-carboxynonadecanoyl-Glu-Glu-Arg-Glu)-[Lys3,His17,Asp21]-pramlintide], the “Potency Luciferase” value is 0.9 nM.

B1: N-alpha-[(S)-4-Carboxy-4-(19-carboxynonadecanoylamino)butyryl]-Arg-[Ala17]-pramlintide (peptide)
peptide: X2-RKCNTATCATQRLANFLAHSSNNFGPILPPTNVGSNTY-NH2
modifications: disulfide 3-8
SMILES: CC[C@H](C)[C@H](NC(=O)[C@@H]1CCCN1C(=O)CNC(=O)[C@H](Cc1ccccc1)NC(=O)[C@H](CC(N)=O)NC(=O)[C@H](CC(N)=O)NC(=O)[C@H](CO)NC(=O)[C@H](CO)NC(=O)[C@H](Cc1c[nH]cn1)NC(=O)[C@H](C)NC(=O)[C@H](CC(C)C)NC(=O)[C@H](Cc1ccccc1)NC(=O)[C@H](CC(N)=O)NC(=O)[C@H](C)NC(=O)[C@H](CC(C)C)NC(=O)[C@H](CCCNC(=N)N)NC(=O)[C@H](CCC(N)=O)NC(=O)[C@@H](NC(=O)[C@H](C)NC(=O)[C@@H]1CSSC[C@H](NC(=O)[C@H](CCCCN)NC(=O)[C@H](CCCNC(=N)N)NC(=O)CC[C@H](NC(=O)CCCCCCCCCCCCCCCCCCC(=O)O)C(=O)O)C(=O)N[C@@H](CC(N)=O)C(=O)N[C@@H]([C@@H](C)O)C(=O)N[C@@H](C)C(=O)N[C@@H]([C@@H](C)O)C(=O)N1)[C@@H](C)O)C(=O)N[C@@H](CC(C)C)C(=O)N1CCC[C@H]1C(=O)N1CCC[C@H]1C(=O)N[C@H](C(=O)N[C@@H](CC(N)=O)C(=O)N[C@H](C(=O)NCC(=O)N[C@@H](CO)C(=O)N[C@@H](CC(N)=O)C(=O)N[C@H](C(=O)N[C@@H](Cc1ccc(O)cc1)C(N)=O)[C@@H](C)O)C(C)C)[C@@H](C)O
Regarding B1, the “Potency Luciferase” value amounted to 0.1 nM.

B2: N-alpha-[(S)-4-Carboxy-4-(19-carboxynonadecanoylamino)butyryl]-Arg-[Ser17]-pramlintide (peptide)
peptide: X2-RKCNTATCATQRLANFLSHSSNNFGPILPPTNVGSNTY-NH2
modifications: disulfide 3-8
SMILES: CC[C@H](C)[C@H](NC(=O)[C@@H]1CCCN1C(=O)CNC(=O)[C@H](Cc1ccccc1)NC(=O)[C@H](CC(N)=O)NC(=O)[C@H](CC(N)=O)NC(=O)[C@H](CO)NC(=O)[C@H](CO)NC(=O)[C@H](Cc1c[nH]cn1)NC(=O)[C@H](CO)NC(=O)[C@H](CC(C)C)NC(=O)[C@H](Cc1ccccc1)NC(=O)[C@H](CC(N)=O)NC(=O)[C@H](C)NC(=O)[C@H](CC(C)C)NC(=O)[C@H](CCCNC(=N)N)NC(=O)[C@H](CCC(N)=O)NC(=O)[C@@H](NC(=O)[C@H](C)NC(=O)[C@@H]1CSSC[C@H](NC(=O)[C@H](CCCCN)NC(=O)[C@H](CCCNC(=N)N)NC(=O)CC[C@H](NC(=O)CCCCCCCCCCCCCCCCCCC(=O)O)C(=O)O)C(=O)N[C@@H](CC(N)=O)C(=O)N[C@@H]([C@@H](C)O)C(=O)N[C@@H](C)C(=O)N[C@@H]([C@@H](C)O)C(=O)N1)[C@@H](C)O)C(=O)N[C@@H](CC(C)C)C(=O)N1CCC[C@H]1C(=O)N1CCC[C@H]1C(=O)N[C@H](C(=O)N[C@@H](CC(N)=O)C(=O)N[C@H](C(=O)NCC(=O)N[C@@H](CO)C(=O)N[C@@H](CC(N)=O)C(=O)N[C@H](C(=O)N[C@@H](Cc1ccc(O)cc1)C(N)=O)[C@@H](C)O)C(C)C)[C@@H](C)O
For the molecule B2, the “Potency Luciferase” value is 0.1 nM.

B3: N-alpha-[(S)-4-Carboxy-4-(19-carboxynonadecanoylamino)butyryl]-Arg-[Pro17]-pramlintide (peptide)
peptide: X2-RKCNTATCATQRLANFLPHSSNNFGPILPPTNVGSNTY-NH2
modifications: disulfide 3-8
SMILES: CC[C@H](C)[C@H](NC(=O)[C@@H]1CCCN1C(=O)CNC(=O)[C@H](Cc1ccccc1)NC(=O)[C@H](CC(N)=O)NC(=O)[C@H](CC(N)=O)NC(=O)[C@H](CO)NC(=O)[C@H](CO)NC(=O)[C@H](Cc1c[nH]cn1)NC(=O)[C@@H]1CCCN1C(=O)[C@H](CC(C)C)NC(=O)[C@H](Cc1ccccc1)NC(=O)[C@H](CC(N)=O)NC(=O)[C@H](C)NC(=O)[C@H](CC(C)C)NC(=O)[C@H](CCCNC(=N)N)NC(=O)[C@H](CCC(N)=O)NC(=O)[C@@H](NC(=O)[C@H](C)NC(=O)[C@@H]1CSSC[C@H](NC(=O)[C@H](CCCCN)NC(=O)[C@H](CCCNC(=N)N)NC(=O)CC[C@H](NC(=O)CCCCCCCCCCCCCCCCCCC(=O)O)C(=O)O)C(=O)N[C@@H](CC(N)=O)C(=O)N[C@@H]([C@@H](C)O)C(=O)N[C@@H](C)C(=O)N[C@@H]([C@@H](C)O)C(=O)N1)[C@@H](C)O)C(=O)N[C@@H](CC(C)C)C(=O)N1CCC[C@H]1C(=O)N1CCC[C@H]1C(=O)N[C@H](C(=O)N[C@@H](CC(N)=O)C(=O)N[C@H](C(=O)NCC(=O)N[C@@H](CO)C(=O)N[C@@H](CC(N)=O)C(=O)N[C@H](C(=O)N[C@@H](Cc1ccc(O)cc1)C(N)=O)[C@@H](C)O)C(C)C)[C@@H](C)O
For the molecule B3, the “Potency Luciferase” value was found to be 2 nM. Next, {C20 diacid-4‑aminobutyryl}-RKCNTATCATQRLANFLRHSSNNFGPILPPTNVGSNTY-NH2 (disulfide 3-8) [N-alpha-[4-(19-Carboxynonadecanoylamino)butyryl]-Arg-[Arg17]-pramlintide]: 0.03 nM.

B4: N-alpha-[2-(2-{2-[4-(S)-Carboxy-4-(19-carboxynonadecanoylamino)butyrylamino]ethoxy}ethoxy)acetyl]-Arg-[Ala17]-pramlintide (peptide)
peptide: {C20 diacid-γGlu-AEEA}-RKCNTATCATQRLANFLAHSSNNFGPILPPTNVGSNTY-NH2
modifications: disulfide 3-8
SMILES: CC[C@H](C)[C@H](NC(=O)[C@@H]1CCCN1C(=O)CNC(=O)[C@H](Cc1ccccc1)NC(=O)[C@H](CC(N)=O)NC(=O)[C@H](CC(N)=O)NC(=O)[C@H](CO)NC(=O)[C@H](CO)NC(=O)[C@H](Cc1c[nH]cn1)NC(=O)[C@H](C)NC(=O)[C@H](CC(C)C)NC(=O)[C@H](Cc1ccccc1)NC(=O)[C@H](CC(N)=O)NC(=O)[C@H](C)NC(=O)[C@H](CC(C)C)NC(=O)[C@H](CCCNC(=N)N)NC(=O)[C@H](CCC(N)=O)NC(=O)[C@@H](NC(=O)[C@H](C)NC(=O)[C@@H]1CSSC[C@H](NC(=O)[C@H](CCCCN)NC(=O)[C@H](CCCNC(=N)N)NC(=O)COCCOCCNC(=O)CC[C@H](NC(=O)CCCCCCCCCCCCCCCCCCC(=O)O)C(=O)O)C(=O)N[C@@H](CC(N)=O)C(=O)N[C@@H]([C@@H](C)O)C(=O)N[C@@H](C)C(=O)N[C@@H]([C@@H](C)O)C(=O)N1)[C@@H](C)O)C(=O)N[C@@H](CC(C)C)C(=O)N1CCC[C@H]1C(=O)N1CCC[C@H]1C(=O)N[C@H](C(=O)N[C@@H](CC(N)=O)C(=O)N[C@H](C(=O)NCC(=O)N[C@@H](CO)C(=O)N[C@@H](CC(N)=O)C(=O)N[C@H](C(=O)N[C@@H](Cc1ccc(O)cc1)C(N)=O)[C@@H](C)O)C(C)C)[C@@H](C)O
On to B4, for which the “Potency Luciferase” value stood at 0.08 nM.

B5: N-alpha-[(S)-4-Carboxy-4-(19-carboxynonadecanoylamino)butyryl]-Arg-[Arg17]-pramlintide (peptide)
peptide: X2-RKCNTATCATQRLANFLRHSSNNFGPILPPTNVGSNTY-NH2
modifications: disulfide 3-8
SMILES: CC[C@H](C)[C@H](NC(=O)[C@@H]1CCCN1C(=O)CNC(=O)[C@H](Cc1ccccc1)NC(=O)[C@H](CC(N)=O)NC(=O)[C@H](CC(N)=O)NC(=O)[C@H](CO)NC(=O)[C@H](CO)NC(=O)[C@H](Cc1c[nH]cn1)NC(=O)[C@H](CCCNC(=N)N)NC(=O)[C@H](CC(C)C)NC(=O)[C@H](Cc1ccccc1)NC(=O)[C@H](CC(N)=O)NC(=O)[C@H](C)NC(=O)[C@H](CC(C)C)NC(=O)[C@H](CCCNC(=N)N)NC(=O)[C@H](CCC(N)=O)NC(=O)[C@@H](NC(=O)[C@H](C)NC(=O)[C@@H]1CSSC[C@H](NC(=O)[C@H](CCCCN)NC(=O)[C@H](CCCNC(=N)N)NC(=O)CC[C@H](NC(=O)CCCCCCCCCCCCCCCCCCC(=O)O)C(=O)O)C(=O)N[C@@H](CC(N)=O)C(=O)N[C@@H]([C@@H](C)O)C(=O)N[C@@H](C)C(=O)N[C@@H]([C@@H](C)O)C(=O)N1)[C@@H](C)O)C(=O)N[C@@H](CC(C)C)C(=O)N1CCC[C@H]1C(=O)N1CCC[C@H]1C(=O)N[C@H](C(=O)N[C@@H](CC(N)=O)C(=O)N[C@H](C(=O)NCC(=O)N[C@@H](CO)C(=O)N[C@@H](CC(N)=O)C(=O)N[C@H](C(=O)N[C@@H](Cc1ccc(O)cc1)C(N)=O)[C@@H](C)O)C(C)C)[C@@H](C)O
B5: the “Potency Luciferase” value came to 0.1 nM.

B6: N-alpha-[2-(2-{2-[4-(S)-Carboxy-4-(19-carboxynonadecanoylamino)butyrylamino]ethoxy}ethoxy)acetyl]-Arg-[Arg17]-pramlintide (peptide)
peptide: {C20 diacid-γGlu-AEEA}-RKCNTATCATQRLANFLRHSSNNFGPILPPTNVGSNTY-NH2
modifications: disulfide 3-8
SMILES: CC[C@H](C)[C@H](NC(=O)[C@@H]1CCCN1C(=O)CNC(=O)[C@H](Cc1ccccc1)NC(=O)[C@H](CC(N)=O)NC(=O)[C@H](CC(N)=O)NC(=O)[C@H](CO)NC(=O)[C@H](CO)NC(=O)[C@H](Cc1c[nH]cn1)NC(=O)[C@H](CCCNC(=N)N)NC(=O)[C@H](CC(C)C)NC(=O)[C@H](Cc1ccccc1)NC(=O)[C@H](CC(N)=O)NC(=O)[C@H](C)NC(=O)[C@H](CC(C)C)NC(=O)[C@H](CCCNC(=N)N)NC(=O)[C@H](CCC(N)=O)NC(=O)[C@@H](NC(=O)[C@H](C)NC(=O)[C@@H]1CSSC[C@H](NC(=O)[C@H](CCCCN)NC(=O)[C@H](CCCNC(=N)N)NC(=O)COCCOCCNC(=O)CC[C@H](NC(=O)CCCCCCCCCCCCCCCCCCC(=O)O)C(=O)O)C(=O)N[C@@H](CC(N)=O)C(=O)N[C@@H]([C@@H](C)O)C(=O)N[C@@H](C)C(=O)N[C@@H]([C@@H](C)O)C(=O)N1)[C@@H](C)O)C(=O)N[C@@H](CC(C)C)C(=O)N1CCC[C@H]1C(=O)N1CCC[C@H]1C(=O)N[C@H](C(=O)N[C@@H](CC(N)=O)C(=O)N[C@H](C(=O)NCC(=O)N[C@@H](CO)C(=O)N[C@@H](CC(N)=O)C(=O)N[C@H](C(=O)N[C@@H](Cc1ccc(O)cc1)C(N)=O)[C@@H](C)O)C(C)C)[C@@H](C)O
Consider B6, for which the “Potency Luciferase” value turned out to be 0.1 nM.
